Key:
[1] = biological target: cytochrome c oxidase (complex IV) (rat (endogenous in rat liver mitoplasts)); settings: for Amax of the cytochrome c oxidase reaction, rat liver mitoplasts without cytochrome c: scale: μg atom of the oxygen/min per 1 mg of the protein
[2] = biological target: ubiquinol–cytochrome c reductase (complex III) (rat (endogenous in rat liver mitoplasts)); settings: for Amax of the succinate:cytochrome c reductase reaction, rat liver mitoplasts without cytochrome c: scale: μmol of the cyt c /min × mg of the protein

Q: What does the source list for “horse cytochrome c I81L/F82S/A83S/G84A (from UniProt P00004 1-105) (natural protein)”?
A: Amax(mut)/Amax(wt) of the cytochrome c oxidase reaction [1]: 92.1%; Km of the cytochrome c oxidase reaction, rat liver mitoplasts without cytochrome c [1]: 5.77 μM of cyt c; Amax of the cytochrome c oxidase reaction, rat liver mitoplasts without cytochrome c [1]: 0.675; Amax(mut)/Amax(wt) of the succinate:cytochrome c reductase reaction [2]: 44.7%; Km of the succinate:cytochrome c reductase reaction, rat liver mitoplasts without cytochrome c [2]: 20.7 μM of cyt c; Amax of the succinate:cytochrome c reductase reaction, rat liver mitoplasts without cytochrome c [2]: 0.055

Q: With “horse cytochrome c T78N/K79Y/M80I/I81M/F82N (from UniProt P00004 1-105) (natural protein)” as the substance, how does the Amax(mut)/Amax(wt) of the cytochrome c oxidase reaction [1] read?
A: 38.6%

Q: What about the Km of the cytochrome c oxidase reaction, rat liver mitoplasts without cytochrome c [1] of the same substance?
A: 4.96 μM of cyt c

Q: What about the Amax of the cytochrome c oxidase reaction, rat liver mitoplasts without cytochrome c [1] of the same substance?
A: 0.283

Q: What about the Amax(mut)/Amax(wt) of the succinate:cytochrome c reductase reaction [2] of the same substance?
A: 6.5%

Q: What about the Km of the succinate:cytochrome c reductase reaction, rat liver mitoplasts without cytochrome c [2] of the same substance?
A: 11 μM of cyt c

Q: And the Amax of the succinate:cytochrome c reductase reaction, rat liver mitoplasts without cytochrome c [2]?
A: 0.008

Q: For “horse cytochrome c I75G/G77R/T78I (from UniProt P00004 1-105) (natural protein)”, which Amax(mut)/Amax(wt) of the cytochrome c oxidase reaction [1] is on record?
A: 86.7%

Q: And the Km of the cytochrome c oxidase reaction, rat liver mitoplasts without cytochrome c [1]?
A: 6.47 μM of cyt c

Q: And the Amax of the cytochrome c oxidase reaction, rat liver mitoplasts without cytochrome c [1]?
A: 0.636

Q: And the Amax(mut)/Amax(wt) of the succinate:cytochrome c reductase reaction [2]?
A: 19.5%

Q: What about the Km of the succinate:cytochrome c reductase reaction, rat liver mitoplasts without cytochrome c [2] of the same substance?
A: 20.7 μM of cyt c

Q: And the Amax of the succinate:cytochrome c reductase reaction, rat liver mitoplasts without cytochrome c [2]?
A: 0.024

Q: What does the source list for “horse cytochrome c I81Y/A83Y/G84N (from UniProt P00004 1-105) (natural protein)”?
A: Amax(mut)/Amax(wt) of the cytochrome c oxidase reaction [1]: 23.6%; Km of the cytochrome c oxidase reaction, rat liver mitoplasts without cytochrome c [1]: 5 μM of cyt c; Amax of the cytochrome c oxidase reaction, rat liver mitoplasts without cytochrome c [1]: 0.173; Amax(mut)/Amax(wt) of the succinate:cytochrome c reductase reaction [2]: 13%; Km of the succinate:cytochrome c reductase reaction, rat liver mitoplasts without cytochrome c [2]: 24.7 μM of cyt c; Amax of the succinate:cytochrome c reductase reaction, rat liver mitoplasts without cytochrome c [2]: 0.016

Q: “horse cytochrome c T78A/K79A/I81A/F82T (from UniProt P00004 1-105) (natural protein)” was tested. Which Amax(mut)/Amax(wt) of the cytochrome c oxidase reaction [1] did it give?
A: 61.8%

Q: What about the Km of the cytochrome c oxidase reaction, rat liver mitoplasts without cytochrome c [1] of the same substance?
A: 5.31 μM of cyt c

Q: What about the Amax of the cytochrome c oxidase reaction, rat liver mitoplasts without cytochrome c [1] of the same substance?
A: 0.453

Q: What about the Amax(mut)/Amax(wt) of the succinate:cytochrome c reductase reaction [2] of the same substance?
A: 3.2%

Q: And the Km of the succinate:cytochrome c reductase reaction, rat liver mitoplasts without cytochrome c [2]?
A: 8.94 μM of cyt c

Q: And the Amax of the succinate:cytochrome c reductase reaction, rat liver mitoplasts without cytochrome c [2]?
A: 0.004

Q: What does the source list for “horse cytochrome c K79V/I81L/F82R (from UniProt P00004 1-105) (natural protein)”?
A: Amax(mut)/Amax(wt) of the cytochrome c oxidase reaction [1]: 97.8%; Km of the cytochrome c oxidase reaction, rat liver mitoplasts without cytochrome c [1]: 6.19 μM of cyt c; Amax of the cytochrome c oxidase reaction, rat liver mitoplasts without cytochrome c [1]: 0.717; Amax(mut)/Amax(wt) of the succinate:cytochrome c reductase reaction [2]: 8.1%; Km of the succinate:cytochrome c reductase reaction, rat liver mitoplasts without cytochrome c [2]: 1.24 μM of cyt c; Amax of the succinate:cytochrome c reductase reaction, rat liver mitoplasts without cytochrome c [2]: 0.01

Q: “wild-type horse cytochrome c (from UniProt P00004 1-105) (natural protein)” was tested. Which Km of the cytochrome c oxidase reaction, rat liver mitoplasts without cytochrome c [1] did it give?
A: 5.4 μM of cyt c

Q: What about the Amax of the cytochrome c oxidase reaction, rat liver mitoplasts without cytochrome c [1] of the same substance?
A: 0.733

Q: What about the Km of the succinate:cytochrome c reductase reaction, rat liver mitoplasts without cytochrome c [2] of the same substance?
A: 20.9 μM of cyt c

Q: What about the Amax of the succinate:cytochrome c reductase reaction, rat liver mitoplasts without cytochrome c [2] of the same substance?
A: 0.123

Q: With “horse cytochrome c T78S/K79P (from UniProt P00004 1-105) (natural protein)” as the substance, how does the Amax(mut)/Amax(wt) of the cytochrome c oxidase reaction [1] read?
A: 47.5%

Q: What about the Km of the cytochrome c oxidase reaction, rat liver mitoplasts without cytochrome c [1] of the same substance?
A: 5.04 μM of cyt c

Q: And the Amax of the cytochrome c oxidase reaction, rat liver mitoplasts without cytochrome c [1]?
A: 0.348

Q: What about the Amax(mut)/Amax(wt) of the succinate:cytochrome c reductase reaction [2] of the same substance?
A: 3.2%

Q: And the Km of the succinate:cytochrome c reductase reaction, rat liver mitoplasts without cytochrome c [2]?
A: 17.4 μM of cyt c

Q: And the Amax of the succinate:cytochrome c reductase reaction, rat liver mitoplasts without cytochrome c [2]?
A: 0.004

Q: Which Amax(mut)/Amax(wt) of the cytochrome c oxidase reaction [1] does the source give for “horse cytochrome c T78A/K79A/I81A/F82T/T89A (from UniProt P00004 1-105) (natural protein)” here?
A: 92.3%

Q: And the Km of the cytochrome c oxidase reaction, rat liver mitoplasts without cytochrome c [1]?
A: 5.31 μM of cyt c

Q: What about the Amax of the cytochrome c oxidase reaction, rat liver mitoplasts without cytochrome c [1] of the same substance?
A: 0.677

Q: What about the Amax(mut)/Amax(wt) of the succinate:cytochrome c reductase reaction [2] of the same substance?
A: 2.4%

Q: And the Km of the succinate:cytochrome c reductase reaction, rat liver mitoplasts without cytochrome c [2]?
A: 5.08 μM of cyt c

Q: What about the Amax of the succinate:cytochrome c reductase reaction, rat liver mitoplasts without cytochrome c [2] of the same substance?
A: 0.003
